Measurements as given in paper PMC13230913 (Nature Communications, 2026).

Key:
[1] = biological target: T1, stabilized, soluble prefusion measles virus F ectodomain (F_ECTO E170G, E455G, residues 1-495) (Measles virus strain Ichinose-B95a, stabilised); experiment: cell-based or functional assay
T1 chain 1: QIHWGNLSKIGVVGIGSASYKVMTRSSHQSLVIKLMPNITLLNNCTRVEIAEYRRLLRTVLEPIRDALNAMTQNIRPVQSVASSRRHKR
T1 chain 2: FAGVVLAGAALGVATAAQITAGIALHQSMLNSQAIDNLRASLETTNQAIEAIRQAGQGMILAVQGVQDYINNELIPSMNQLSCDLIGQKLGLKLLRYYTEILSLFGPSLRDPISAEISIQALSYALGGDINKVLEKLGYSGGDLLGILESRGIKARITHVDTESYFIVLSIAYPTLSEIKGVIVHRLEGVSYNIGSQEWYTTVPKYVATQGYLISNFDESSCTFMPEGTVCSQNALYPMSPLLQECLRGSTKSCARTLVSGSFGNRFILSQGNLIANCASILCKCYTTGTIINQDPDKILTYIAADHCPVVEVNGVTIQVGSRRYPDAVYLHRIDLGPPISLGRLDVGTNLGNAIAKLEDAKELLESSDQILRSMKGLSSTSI

[2] = biological target: T1, stabilized, soluble prefusion measles …; experiment: SPR
[3] = biological target: measles virus B3 F protein with L454W (destabilized prefusion conformation), on cells (Measles virus genotype B3)

Row | Binder | melting temperature of F_ECTO with Fab by nanoDSF (F_ECTO alone 47.2 °C) [1] [°C] | Kd [2] [nM] | koff [2] [s⁻¹] | kon [2] [M⁻¹ s⁻¹] | IC90 of plaque reduction neutralization test (PRNT), virus B3 F-L454W [3] [nM]
1 | Y10F Fab (Fab, V domains shown) VH: QVQLQQSGAELMKPGASVKISCKAAGYTFSNYWIEWVKQRPGHGLEWIGEILPGNSYTNYNEKFRGKATITADTSSNTAYMQLSSLTSEDSAVYYCASPLSGNYVRFAYWGQGTLVTVST VL: QIVLSQSPAILSASPGEKVTMTCRATSSVVYMHWYQQKPGSSPKPWIYATSNLASGVPTRFSGSGSGTSYSLTISRVEAEDAATYYCQQWNSNPYTFGGGTKLEIK | 55.5 | – | – | – | –
2 | chimeric monoclonal antibody Y10F (mouse Fab / human Fc) (antibody, V domains shown) VH: QVQLQQSGAELMKPGASVKISCKAAGYTFSNYWIEWVKQRPGHGLEWIGEILPGNSYTNYNEKFRGKATITADTSSNTAYMQLSSLTSEDSAVYYCASPLSGNYVRFAYWGQGTLVTVST VL: QIVLSQSPAILSASPGEKVTMTCRATSSVVYMHWYQQKPGSSPKPWIYATSNLASGVPTRFSGSGSGTSYSLTISRVEAEDAATYYCQQWNSNPYTFGGGTKLEIK | – | 99.9 | 0.00179 | 17900 ± 300 | –
3 | chimeric monoclonal antibody H8 (mouse Fab / human Fc) (antibody, V domains shown) VH: QVQLQQSGAELVRPGTSVKISCKASGYTFINYWLGWVKQRPGHGLEWIGDIYPGGGHTKYNEKFKGKATLTADTSSSTAYMQLSSLTSEDSAVFFCARSGVGSSYYYWGQGTTLTVSS VL: DIVLTQSPASLAVSLGQRATISCRASKSVSSSGYSFLHWYQQKPGQPPKLLIYLASNLDSGVPARFSGSGSGTDFTLNIHPVEEEDATTYYCQHSWELPTFGGGTKLEIK | – | 3.17 | 7.48e-05 | 23600 ± 810 | 23
4 | chimeric monoclonal antibody 77.1 (mouse Fab / human Fc) (antibody, V domains shown) VH: DVQLQESGPGLVKPSQSLSLTCTVSGYSITSDYAWNWIRQFPGNKLEWMGYISYTLTTGYNPSLKSRISITRDSSKNQFFLQLNSVTTEDTATYYCARSGWLLPYWYFDVWGAGTTVTVSS VL: DVQITQSPSYLAASPGETITINCRASKSISKYLAWYQEKPGKTNELLIYSGSTLQSGIPSRFRGSGSGTDFTLTISSLEPEDFAMYYCQQHNEYTLTFGGGTKLELK | – | 1.71 | 0.000207 | 121000 ± 2000 | –
